Usually EC50 (read off the curve) stands for the midpoint of the concentration-response curve. Usually Kd stands for the free concentration of one partner at which half of the binding sites on the other are occupied at equilibrium, for simple one-to-one binding. Read a high Kd as weaker binding. For orientation: koff means the first-order rate constant of dissociation. The low end stands for a long-lived complex, the high end for a short-lived complex. As a reminder, the kon is a measure of how fast the partners come together. Lower therefore signals slower complex formation.

The target of experiment [1] is T1, Human IL13Rα2 (human, UniProt Q14627 27-343, limits assumed).
T1 construct: also called human recombinant IL13Rα2; Human IL13Ra2
T1 sequence (looked up): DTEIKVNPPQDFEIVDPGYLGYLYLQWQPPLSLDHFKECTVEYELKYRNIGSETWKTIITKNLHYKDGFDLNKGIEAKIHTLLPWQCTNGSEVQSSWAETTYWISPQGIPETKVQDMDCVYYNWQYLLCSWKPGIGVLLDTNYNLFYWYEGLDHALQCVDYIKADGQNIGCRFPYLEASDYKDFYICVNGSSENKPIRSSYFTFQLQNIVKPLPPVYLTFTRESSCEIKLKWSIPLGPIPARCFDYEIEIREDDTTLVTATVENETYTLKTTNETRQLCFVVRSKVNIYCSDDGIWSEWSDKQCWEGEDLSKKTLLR
Put plainly: plate ELISA on human recombinant IL13Rα2, OD405, N=3. (In general: ELISA stands for enzyme-linked immunosorbent assay.)

In experiment [2] the target is T1, Human IL13Rα2. Put plainly: SPR Biacore 8K affinity ranking, antibody supernatant Fc-captured, 100 nM IL13Rα2 analyte. (Surface plasmon resonance follows binding to a sensor surface in real time, without labels.)
Experiment [3] has as its target T1, Human IL13Rα2. Nature of the experiment: SPR Biacore T200, antibody Fc-captured, IL13Rα2 as analyte.
For experiment [4], the target named is T1, Human IL13Rα2. Nature of the experiment: SPR Biacore T200, purified IgG Fc-captured, IL13Rα2 as analyte.
Experiment [5] deals with T2, human recombinant IL13Rα2hFc (cat #7147-IR-100, R&D Systems) (human, UniProt Q14627 27-343).
T2 construct: Bought; also called recombinant human IL13Ra2; not shown: human Fc ('hFc') of the bought fusion protein
T2 sequence (looked up): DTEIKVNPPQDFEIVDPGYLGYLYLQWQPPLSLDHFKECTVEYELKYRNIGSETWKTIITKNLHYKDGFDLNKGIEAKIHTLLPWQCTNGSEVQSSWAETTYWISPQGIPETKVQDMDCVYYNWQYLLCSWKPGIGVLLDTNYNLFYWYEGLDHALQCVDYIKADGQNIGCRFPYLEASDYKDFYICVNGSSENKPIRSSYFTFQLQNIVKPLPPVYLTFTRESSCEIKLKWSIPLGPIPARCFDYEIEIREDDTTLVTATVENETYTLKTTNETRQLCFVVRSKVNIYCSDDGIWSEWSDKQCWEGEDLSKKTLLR
Put plainly: plate ELISA on coated IL13Rα2hFc (1 µg/mL), detection with anti-6xHis-HRP, OD450 [continued) D].

The target of experiment [6] is T1, Human IL13Rα2. Put plainly: SPR Biacore T200, antibody captured, IL13Rα2 analyte 0.9375-60 nM.
Experiment [7] addresses T1, Human IL13Rα2. Nature of the experiment: plate ELISA on human IL13Rα2, OD405, N=4 [continued) B].
For experiment [8], the target named is T1, Human IL13Rα2. Nature of the experiment: plate ELISA on human recombinant IL13Rα2, OD405, N=4.
The target in experiment [9] is T1, Human IL13Rα2. Put plainly: SPR Biacore T200, 25 C, antibody captured on Protein A chip, IL13Ra2 analyte 0.625-80 nM.

B1: Chimeric antibody (VH and VL of murine Ab clone 47 in human constant regions) (antibody, V domains shown)
VH: QVQLQQPGAELVRPGASVKLSCKASGYTFSNYLMNWVKQRPEQDLDWIGRIDPYDGDIDYNQNFKDKAILTVDKSSSTAYMQLSSLTSEDSAVYYCARGYGTAYGVDYWGQGTSVTVSS
VL: not shown
notes: Full-length IgG, murine variable regions with human constant regions; also called chimeric IgG; Chimeric Ab
In the case of B1, in experiment [1], the “EC50 (read off the curve)” value was around 0.03 µg/mL. Moreover, the Kd in experiment [2] came out at 1.07 nM; in experiment [3] it was 1.44 nM; in experiment [4], 1.45 nM. The koff in experiment [2] worked out at 0.000544 s⁻¹; in experiment [3] it was 0.000523 s⁻¹; in [4], 0.000477 s⁻¹. Moreover, the kon in [2] amounted to 511000 M⁻¹ s⁻¹; in experiment [3], 363000 M⁻¹ s⁻¹; in [4], 330000 M⁻¹ s⁻¹.

B2: Murine version of the BTE (scFv of anti-CD3 Okt3 and scFv of the murine anti-IL13Rα2 antibody) (bispecific antibody, V domains shown, not shown: small tags and cut ends)
VH: QVQLQQPGAELVRPGASVKLSCKASGYTFSNYLMNWVKQRPEQDLDWIGRIDPYDGDIDYNQNFKDKAILTVDKSSSTAYMQLSSLTSEDSAVYYCARGYGTAYGVDYWGQGTSVTVSS
VL: not shown
notes: Control BTE; also called Okt3BTE; chimeric BTE using the mouse monoclonal Ab VH and VL domains
With B2, the “EC50 (read off the curve)” value in [5] was around 0.5 µg/mL.

B3: Humanized antibody VH1 + VL1 (antibody, human IgG1, kappa, V domains shown)
VH: QVQLVQSGAEVKKPGSSVKVSCKASGYTFSNYLMNWVRQAPGQGLEWMGRIDPYDGDIDYNQNFKDRVTITADKSTSTAYMELSSLRSEDTAVYYCARGYGTAYGVDYWGQGTLVTVSS
VL: DIVMTQSPDSLAVSLGERATINCRASESVDNYGISFMNWYQQKPGQPPKLLIYAASRQGSGVPDRFSGSGSGTDFTLTISSLQAEDVAVYYCQQSKEVPWTFGGGTKLEIKR
notes: also called Humanized VH1-VL1; U3621EI120 VH1+VL1
In the case of B3, the “EC50 (read off the curve)” value in experiment [1] is around 0.02 µg/mL; in experiment [7] it was around 0.05 µg/mL; in experiment [8] it was around 0.02 µg/mL. Further, the Kd in [6] was 0.257 nM; in experiment [2] it was 0.768 nM; in [4], 0.283 nM. Further, the koff was 0.00019 s⁻¹ in experiment [6], 0.000329 s⁻¹ in [2] and 0.000191 s⁻¹ in experiment [4]. For the same molecule, the kon in experiment [6] turned out to be 740000 M⁻¹ s⁻¹; in [2] it was 429000 M⁻¹ s⁻¹; in experiment [4], 676000 M⁻¹ s⁻¹.

B4: Ab Vh1G56A-VL1W100F (antibody, human IgG1, kappa, V domains shown)
VH: QVQLVQSGAEVKKPGSSVKVSCKASGYTFSNYLMNWVRQAPGQGLEWMGRIDPYDADIDYNQNFKDRVTITADKSTSTAYMELSSLRSEDTAVYYCARGYGTAYGVDYWGQGTLVTVSS
VL: DIVMTQSPDSLAVSLGERATINCRASESVDNYGISFMNWYQQKPGQPPKLLIYAASRQGSGVPDRFSGSGSGTDFTLTISSLQAEDVAVYYCQQSKEVPFTFGGGTKLEIKR
notes: also called double mutant
Consider B4, for which, in [7], the “EC50 (read off the curve)” value was around 0.03 µg/mL. Further, in experiment [9], the Kd amounted to 0.277 nM, the koff was found to be 0.000284 s⁻¹ and the kon is 1.02e+06 M⁻¹ s⁻¹.

B5: Ab Vh1-VL1W100F (antibody, human IgG1, kappa, V domains shown)
VH: QVQLVQSGAEVKKPGSSVKVSCKASGYTFSNYLMNWVRQAPGQGLEWMGRIDPYDGDIDYNQNFKDRVTITADKSTSTAYMELSSLRSEDTAVYYCARGYGTAYGVDYWGQGTLVTVSS
VL: DIVMTQSPDSLAVSLGERATINCRASESVDNYGISFMNWYQQKPGQPPKLLIYAASRQGSGVPDRFSGSGSGTDFTLTISSLQAEDVAVYYCQQSKEVPFTFGGGTKLEIKR
notes: also called single mutant W100F
With B5, the “EC50 (read off the curve)” value in experiment [7] is around 0.03 µg/mL. Also, in [9], the Kd turned out to be 0.326 nM, the koff turned out to be 0.000334 s⁻¹ and the kon was found to be 1.03e+06 M⁻¹ s⁻¹. Also, in experiment [8], the “EC50 (read off the curve)” value is around 0.03 µg/mL.

B6: Humanized antibody VH1(G56A) + VL1 (antibody, human IgG1, kappa, V domains shown)
VH: QVQLVQSGAEVKKPGSSVKVSCKASGYTFSNYLMNWVRQAPGQGLEWMGRIDPYDADIDYNQNFKDRVTITADKSTSTAYMELSSLRSEDTAVYYCARGYGTAYGVDYWGQGTLVTVSS
VL: DIVMTQSPDSLAVSLGERATINCRASESVDNYGISFMNWYQQKPGQPPKLLIYAASRQGSGVPDRFSGSGSGTDFTLTISSLQAEDVAVYYCQQSKEVPWTFGGGTKLEIKR
notes: also called VHG56A-VL1; Humanized VHG56A-VL1
In the case of B6, the concentration giving a half-maximal response (EC50 (read off the curve)) in experiment [1] was around 0.02 µg/mL. In [6], the Kd came out at 0.215 nM, the koff was 0.000156 s⁻¹ and the kon came to 727000 M⁻¹ s⁻¹.

B7: Humanized antibody VH1-VL1 M37A (antibody, human IgG1, kappa, V domains shown)
VH: QVQLVQSGAEVKKPGSSVKVSCKASGYTFSNYLMNWVRQAPGQGLEWMGRIDPYDGDIDYNQNFKDRVTITADKSTSTAYMELSSLRSEDTAVYYCARGYGTAYGVDYWGQGTLVTVSS
VL: DIVMTQSPDSLAVSLGERATINCRASESVDNYGISFANWYQQKPGQPPKLLIYAASRQGSGVPDRFSGSGSGTDFTLTISSLQAEDVAVYYCQQSKEVPWTFGGGTKLEIKR
In the case of B7, the binding result in [8] is given as “binds”.

B8: Humanized antibody VH1-VL1 Q94E (antibody, human IgG1, kappa, V domains shown)
VH: QVQLVQSGAEVKKPGSSVKVSCKASGYTFSNYLMNWVRQAPGQGLEWMGRIDPYDGDIDYNQNFKDRVTITADKSTSTAYMELSSLRSEDTAVYYCARGYGTAYGVDYWGQGTLVTVSS
VL: DIVMTQSPDSLAVSLGERATINCRASESVDNYGISFMNWYQQKPGQPPKLLIYAASRQGSGVPDRFSGSGSGTDFTLTISSLQAEDVAVYYCQESKEVPWTFGGGTKLEIKR
Take B8: in experiment [8], the “EC50 (read off the curve)” value is around 0.01 µg/mL.

B9: Humanized antibody VH1-VL1 Q58E (antibody, human IgG1, kappa, V domains shown)
VH: QVQLVQSGAEVKKPGSSVKVSCKASGYTFSNYLMNWVRQAPGQGLEWMGRIDPYDGDIDYNQNFKDRVTITADKSTSTAYMELSSLRSEDTAVYYCARGYGTAYGVDYWGQGTLVTVSS
VL: DIVMTQSPDSLAVSLGERATINCRASESVDNYGISFMNWYQQKPGQPPKLLIYAASREGSGVPDRFSGSGSGTDFTLTISSLQAEDVAVYYCQQSKEVPWTFGGGTKLEIKR
In the case of B9, the binding result in experiment [8] is “binds”.

Source of the values: patent publication US12703750 (NORTHWESTERN UNIVERSITY, dated 2026).
